Measurements published in the nanobody polyreactivity screen of Harvey et al. (2022).

assay: yeast display, Sf9 membrane polyspecificity reagent, FACS + sequencing; frameworks hold sequencing errors
Summary of the method: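 Galactose induction of a Saccharomyces cerevisiae BJ5465 synthetic nanobody display library ran 36–48 hours. The cells were then stained for 1 hour at 4 °C with 10% biotinylated, detergent-solubilized Sf9 membrane reagent, pulled down on streptavidin microbeads and FACS-sorted into low and high (top ~1%) gates on expression and reagent-binding fluorescence. Labels for polyreactivity follow the gate of origin.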

Row | Sequence | polyreactivity (PSR sort gate)
1 | QDQLVESGGGLFQAGGSLRLSCAASGGIFGFYAMGWSRKAPGKERELVAAISWGGGSTYYADSVKGRFTISRDNAKNTVYLQMNSLKPEDTAFYYCAADPALTIEYGYWGQVTQVTVSS | low polyreactivity
2 | QDQLVQSGGGLVQAGGSLRLSCAASAITFVIYSMGWYRQAPGKERELVAAIDGSDGSTYYADSVKGRFTISRDTAKNTVYLQMNSLKPEDTAVYYCNADTGGYYVTGSYLYNEYDYWGQGTQVTVSS | low polyreactivity
3 | QVHLVESGGGLVQAGGSLRLSCAASGSTFRHYAMGWYRQAPGKERELVAAISSRGGRTYYADSVKGRFTISRDNAKNTGYLQMNSQKPEDTAVYYCAADRFRLYVGGWWYDYWRQGTQVTVSS | high polyreactivity
4 | QVQLVDSGGGLVQAGGSLRLSCAASGFIFDVYAMGGYRQAPGKERELVAAITSGDGTNYADSVKGRFTISRDNAKNTVYFQMNSLKPEDTAVYYCAADDGVTYRGIIFSYWGQGTQVTVSS | low polyreactivity
5 | QVQLVESGGGLVQAGGILRLSCAASGSIFRNYAMGWYRQAPGKERELVAAISVRGGSTYYADSVKGRFTISRDNTKNTVYLQMNSLKPEDTAVYYCNARTYYPVYYRDGGYWGQGTQVTVSS | high polyreactivity
6 | QVQLVESGGGLVQAGGSLRLSCAASGFTFRRNAMGWYIQAPGKERELVAAINVRDGSTYYADSVKGRFTISRDNAKNTVYLQMNSLKPEDTAVYYCAAEFFQGYYWYYYWGQGTQVTVSS | high polyreactivity
7 | QVQLVDSGGGLVQAGGSLRLSCAASGFNFDQYGLGWYRQAPGKERELVASITSTGSTYYADSVKGRFTISRDNAKNTVYLQMNSLKPEDTAVYYCATDSYDGMDYWGQGTQVTVSS | low polyreactivity
8 | QVQLVESGGGLVQAGGSLRLSCAASGISFYLYAMGWYRQAPGKERELVAAISWRGDSTYYADSVKGRFTISRDNAKNTVYLQMNSLKPEDTAVYYCAADLLPLYDYWGQGTQVTGSS | high polyreactivity
9 | QVQLVESGGGLVQAGGSLRLSCAASGSIFRYYVMGWSRQAPGKERELVASISYSVGRTYYADSVKGRFTISRDNAKNTVYLQMNCLKPEDTAVYYCAADRYWPYYSAYYTSYRMDYWGQGTQVTVSS | high polyreactivity
10 | QVQLVESGGGLVQAGGSLRLSCAASGSIIGDNAMGWSRQAPGKERELVADITNGGSTNYADSVKGRFTISRDNAKNTVYLQMNSLKPEDTAVYYCNKDIVWYGNYGYWGQGTQVTVSS | low polyreactivity
11 | QVQLVESGGGLVQAGRSLCLSCAASGSIFINAMGWYRQAPGKERELVATIRWRGGTTYYADSVKGRFTISRDNAKNTVDLQMNSLKPEATAVYYCAADRSYYPDTRTTYGYNYWGQGTQVTVSS | low polyreactivity
12 | QVQLVESGGGLVQAGGSLRLSCAASGFTFWDYTMGWYRQAPGKERELVAAISSSGGGTYYADSVKGRFTISRDNAKNTVYLQMNSLKPVDTAVYYCAASVWYYPMDYWGQGTQVTVSS | low polyreactivity
13 | QVQLVESGGGLVQAGGSLRLSCAASGRIVTDSAMGWYSQAPGKDREFVAAIRRSGGSTYYAGCVKGRCTISRDTANNTVYLQMNSLKPEDTAVYYCAARGATSYYIFHSWGQGTQVTVSS | high polyreactivity
14 | QVQLLESGGGLVQAGGSLRLSCAASGRTFTRNAMGWYRQAPGKERELVAAISYRVGSTYYADSVKGRFTISRDNAKNTVYLQMNSLKPEDTAVYYCATGRGHSYGGDDYWGQGTQVTVSS | high polyreactivity
15 | QVQLVESGGGLVQAGGSLRLSCAASGITFTYYARGWYRQAPGKEMELVAAISWSGGSTYYADSVKGRFTISRDNAKNTVYLQMNSLKPEDTAVYYCAATFSRFAYYYWGQGTQVTVSS | high polyreactivity
16 | QVQLVESGGGLVQAGGSLRLSCAASGLTFWANTMGWYRQAPGKERELVAAITWSGGSTYYADSVKGRFTISRDNAKNTVNLQMNSLKPEDTAVYYCAADEYFAAGYSYYYWGQGSQVTVSS | low polyreactivity
17 | QVQLVESGGGLVQAGGTLRLSCAASGLTFRYYAMGWYRQAPGKERELVAAITRRGSTYYADSVKGRFTISRDNAKNTVYFQMNSLKPEDTAVYYCATVTGFHSSPLRDLDYWGQGTQVTVSS | high polyreactivity
18 | QVQLVESGGGLVQAGGSLRLSCAASGRTITRNAMGWYRQAPGKERELVAAITTTGGSTYYADYVKGRFTISRDNAKNTVYLQMNSLKPEDNAVYYCNADWVGPFRRATNITTYFGYDYWGQGTQVTVSS | low polyreactivity
19 | QVQLVESGGGLVQAGGSLRLSCAASGRTFAPYAMGWYRQAPGKERELVAGITYRTGNTYYADSVKGRFTISRDNAKNTVYLQMNTLKPEDTGVYYCAAYSGYYRPRYNYWGQGTQVTVSS | high polyreactivity
20 | QVQLVESGGGLVQAGGSLRLSCAASGLTLTYYAMGWYRQAAGKERELVAAISSSGGSTYYADSVKGRFTISRDNAKNTVYLQMNSLKPEDTAVYYCAATRVSWTGRDDYWGQGTQVTVSS | high polyreactivity
21 | QVQHVESGGGLVQAGGSLRLSCAASGSTFGKNTRGWSRQAPGKERELVAAISSRGGSTYYADSGKGRFTISRDNAKNTVYLQMNSLKPEDTAVYYCAAYSVSLGYDYWGQGTQVTVST | high polyreactivity
22 | QVQLVESGGGLVQAGGSLRLSCAASGRIFGRYAMGWYRQAPGKERELVARITFRGGNTYYADSVKGRFTISRDNAKNTVYLQMNSLKPEDTAVYYCNASKHNPYGGDYWGQGTQVTVSS | high polyreactivity

Row | Sequence | polyreactivity (PSR sort gate)
23 | QVQLVESGGGLVQAGGSLRLSCAASVSIFTAYPRGWYRQAPGKERELVAAISNGGSTYYADSVKGRFTISRDNAKNTVYLQMNSLKQEDTAVYYCAADSVQFQPDDEYWGQGTQVTVSS | low polyreactivity
24 | QVQLVESGGGLVQAGGSLRLSCAASASTLYSYAMGWYRQAPGKEREFVAAITSDDGSKYYADSVKGRFTISRDNAKNTVYLQMNSLKQEDTAVYYCATAASVEYNYWGEGTQVTVSS | low polyreactivity
25 | QVKLVESRGGLVQAGGSLRLSCAASARIFVHNAKGCYRQAPGKAREFDAAITRRGGSTYADSVKGRFRISRDNAKNTVYLQMTSLKPEDTAVYYCNAESYYGIFRYNYDYWGQGTQVTVSS | high polyreactivity
26 | QVQLVESGGGLVQAGGSLRLSCAASGSTFLPNAMGWYRQAPGKERELVARISYSGGNTYYADSVKGRFTISRDNAKNTVYLQMNSLKPEDTAVYYCAAVGWYHDYYWGQGTQVTVSS | high polyreactivity
27 | QVQLVESGGGLVQAGGSLRLSCAASGRIFRLYTMGWYRPAPGKERELVAAISGSGGRTYYADSVKGRFTISRDNAKNTVYLQMNSLKPEDTAVYYCAKVGYKSPYLYSQHYTGFGYWGQGTQVTVSS | high polyreactivity
28 | QVQLVESGGGLVQAGGSLRLSCAASGSIFYRNAMGWSRQAPGKERELVAAISASGGSTYYADSVKGRFTISRDNAKNTVYLQMNSLKPEDTAVYYCAVEYRKSRSYAPMGYWGQGTQVTVSS | high polyreactivity
29 | QVQLVESGGGLVQAGGSLRLSCAASGSTFSSYAMGWYRQAPGKERELVAAISSSGVRTYYADSVKGRFTISRDNAKNSVYLQMNSLKPEDTAVYYCKLTLLTVNRTGMTTWGQGTQVTVSS | high polyreactivity
30 | QVQLVESRGGLVQAGGSLRISCAASGRIFGYNAMGWYRQAPGKERELVAAISASGGRTYYADSVKARFTISRDNAKNTVYLQMNSLKPEDTAVYYCATKYRSFYSYDYWGQGTQVTVSS | high polyreactivity
31 | QVQLVESGGGLVQAGGSLRLSCAASRLIFRGNDMGWYRQAPGKERELLAGINSSGSTNYADSVKGRFTISRDNAKNTVYLHMNSLKPEDTAVYYCAARAIVSFDYWGQGTQVTVSS | low polyreactivity
32 | QVQHVESGGGLVQAGGSLRLSCAASGLNFTRYVMGWYRQAPGKERELVAVISSGGSTYYADSVKGRFTISRDNAKNTVYLQMNSLKPEDTAVYYCAAYLRYSQVTYDYWGQGTQVTVSS | high polyreactivity
33 | QVQLVESGGGLVQAGGSLRLSCAASGSTFRFYAMGWYRPAPGKERELVAVIRSTGSTYYADSVKGRFTISRDNAKNTVYLQMNSLKPEDTAVYYCAAQNAWWSNGRSYDYWGQGTQVTVSS | low polyreactivity
34 | QVQLVESGGGLVQAGGSLRLSCAASGSTFGVYAMGWYRQAPGKERELVAAINARGTRTRYADSVKGRFTISRDNAKNTVYLQMTSMKPEDTAVYYCAAVWYGYYSIDTDGYWGQGSQVTVSS | high polyreactivity
35 | QVQLVESGGGLVQAGGSLRLSCAASGSTFFRYAMGWYRQAPGKERELVAAITSSGGRTYYADSVKGRFTISRDNAKNTVYLQMNSLKPEDTAVYYCADASGTSPYDYWGQGTQVTVSS | high polyreactivity
36 | QVQLVESGGGLVQAGGSLRLSCAASGSIFYRYAMGWNRPAPGKERELVAAISRSGGTTYYADSVKGRFTISRDNAKNTVYLQMYCLKPEDTAVYYCAALVFHAYSTDPYFYWGQGTQVTVSS | high polyreactivity
37 | QVQLVESGGGLVQAGGSLRLSCAASGSIFTEYAMGWYRKAPGKERELVAVITLRGGSTYYADSVKGRFTISRDNAMNTVYLQMNSLKPEDTAVYYCAAVTLVSFWFDYWGQGTQVTVSS | low polyreactivity
38 | QVQLVESGGGLVQAGGSLRLSCAASGRIFASNAMGWYRQAPGKERELVAGISRNGGSTFYADSVKGRFTISRDNAKNTVYLQMNSLKPEDTAVYYCARYYTHSGGYRDRIYYYWGQGTQVTVSS | low polyreactivity
39 | QVQLVDSGGGLVQAGGTLRLSCAASGSTLYFYAMGWYRLAPGKERELVAAITYIGGRTSYADSVKGRFTISRDNAKNTVYLQMNSLKPEDTAVYYCAAAPYGYRRYEYWGQGTQVTVSS | high polyreactivity
40 | QVQLVESGGGLFQAGGSLRLSCAPSGRIFTTYAMGWYRQAPGKDRELVAAISRSGGSSYYADSVKGRFTISRDNAKNTVYLQMKSLKQEDTAVYFCAAVPTSNSFRSSFYNWGQGTQVTVSS | high polyreactivity
41 | QVQLVESGGGLVQAGGSLRVICAASGSIGRYAMGWSRQAPGKERELVAAISSSGGSTYYADSVKGRFTISRDNAKNTVYLQMNSLKPEDTAGYYCAACPGAQEDDYWGPGTQVTVSS | high polyreactivity
42 | QVQLVESGGGLVQAGGSLRLSCAASGMTFTYYAMGWYRQAPGKERELVAAISWSDGSTYYADSVKGRFTISRDNAKNTVYLQMNSLKPEDTAVYYCAARYGGAISQAKYYYWGQGTQVTVSS | high polyreactivity
43 | QVQLVESGGGLVQAGGSLRLSCAASGSTFWSYAMGWSRQAPGKERELVAAITDSGGSTYYADSVKGRFTISRDNAKNTVYLQLNSLKPEDTAVYYCAVDSRYTAPLRPLGPFDYWGQGTQVTVSS | low polyreactivity
